Reference: the supplement of paper PMC7877785
± gives the uncertainty stated by the source.

Experiment: self-splicing fitness, log relative to wild type (ln ratio); higher = more splicing; Tetrahymena group I intron in knt gene, E. coli kanamycin selection, DiMSum; sequences stand for … in CUCUCU…GGAGGGAAAAGUUAUCAGGCAUGCACCUGGUAGCUAGUCUUUAAACCAAUAGAUUGCAUCGGUUUAAAAGGCAAGACCGUCAAAUUGCGGGAAAGGGGUCAACAGCCGUUCAGUACCAAGUCUCAGGGGAAACUUUGAGAUGGCCUUGCAAAGGGUAUGGUAAUAAGCUGACGGACAUGGUCCUAACCACGCAGCCAAGUCCUAAGUCAACAGAUCUUCUGUUGAUAUGGAUGCAGUUCACAGACUAAAUGUCGGUCGGGGAAGAUGUAUUCUUCUCAUAAGAUAUAGUCGGACCUCUCCUUAAUGGGAGCUAGCGGAUGAAGUGAUGCAACACUGGAGCCGCUGGGAACUAAUUUGUAUGCGAAAGUAUAUUGAUUAGUUUUGGAGUACUCGUGGUCG
Summary of the method: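 A randomised library covering all eight P1ex-region intron nucleotides was built with the intron in the knt kanamycin-resistance gene on pET-22b(+) and held in E. coli BL21(DE3). Cells were grown overnight at 37°C or 30°C on LB agar, with or without 25 μg/mL kanamycin, plus 100 μg/mL carbenicillin, 50 μM IPTG and 0.2% rhamnose, and pooled colonies were amplicon-sequenced on an Illumina HiSeq 2500. DiMSum fitness is the error-weighted combination of wild-type-normalised replicate fold changes, kanamycin versus none.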

Sequence	self-splicing fitness (ln) (30 °C)	self-splicing fitness (ln) (37 °C)
AACCAGCAAUAUUACGUCGA	-0.87 ± 0.071	-0.757 ± 0.07
AACCAGCAAUAUUACGUGCA	-0.671 ± 0.055	-0.0717 ± 0.072
AACCAGCAAUAUUACGUUAU	-2.18 ± 0.055	-0.941 ± 0.058
AACGAGCAAUAUUACGAAGU	-2.75 ± 0.17	-2.86 ± 0.31
AACGAGCAAUAUUACGAGAU	-4.25 ± 0.36	-3.02 ± 0.3
AACGAGCAAUAUUACGAUGA	-3.91 ± 0.46	-2.08 ± 0.22
AACGAGCAAUAUUACGAUUG	-4.09 ± 0.23	-1.56 ± 0.23
AACGAGCAAUAUUACGCCUC	-2.71 ± 0.28	-1.53 ± 0.17
AACGAGCAAUAUUACGCCUU	-3.47 ± 0.16	-1.8 ± 0.11
AACGAGCAAUAUUACGCGAU	-3.04 ± 0.26	-1.99 ± 0.3
AACGAGCAAUAUUACGCGCG	-1.81 ± 0.28	-1.75 ± 0.28
AACGAGCAAUAUUACGGAAA	-3.63 ± 0.23	-2.65 ± 0.24
AACGAGCAAUAUUACGGACA	-2.38 ± 0.12	-1.57 ± 0.11
AACGAGCAAUAUUACGGAUA	-2.98 ± 0.22	-1.85 ± 0.29
AACGAGCAAUAUUACGGGUA	-2.96 ± 0.17	-0.912 ± 0.11
AACGAGCAAUAUUACGGUCG	-2.14 ± 0.13	-1.02 ± 0.14
AACGAGCAAUAUUACGUACU	-1.04 ± 0.067	-1.04 ± 0.079
AACGAGCAAUAUUACGUCCA	-2.92 ± 0.3	-1.92 ± 0.21
AACGAGCAAUAUUACGUGGA	-2.62 ± 0.33	-2.15 ± 0.19
AACGAGCAAUAUUACGUGGU	-4.57 ± 0.27	-2.94 ± 0.17
AACGAGCAAUAUUACGUUUA	-3.12 ± 0.2	-2.64 ± 0.21
AACUAGCAAUAUUACGAAAA	-1.53 ± 0.16	-1.75 ± 0.17
AACUAGCAAUAUUACGAAAG	-2.79 ± 0.15	-1.61 ± 0.18
AACUAGCAAUAUUACGAACG	-0.824 ± 0.083	-0.339 ± 0.12

Sequence	self-splicing fitness (ln) (30 °C)	self-splicing fitness (ln) (37 °C)
AACUAGCAAUAUUACGAGCA	-1.68 ± 0.12	-0.209 ± 0.11
AACUAGCAAUAUUACGAUGC	-1.25 ± 0.12	-2.06 ± 0.25
AACUAGCAAUAUUACGAUUA	-0.307 ± 0.087	-0.0303 ± 0.11
AACUAGCAAUAUUACGAUUU	-0.0161 ± 0.059	-0.157 ± 0.075
AACUAGCAAUAUUACGCAGA	-3.43 ± 0.37	-0.413 ± 0.15
AACUAGCAAUAUUACGCCGA	-1.74 ± 0.18	-0.583 ± 0.18
AACUAGCAAUAUUACGCGAU	-2.64 ± 0.15	-2.22 ± 0.17
AACUAGCAAUAUUACGCGGG	-2.78 ± 0.15	-2.37 ± 0.19
AACUAGCAAUAUUACGCUUA	-0.632 ± 0.087	-0.749 ± 0.11
AACUAGCAAUAUUACGGACA	-0.804 ± 0.15	-0.48 ± 0.13
AACUAGCAAUAUUACGGAUA	-2.79 ± 0.25	-1.2 ± 0.23
AACUAGCAAUAUUACGGCAA	-1.01 ± 0.076	-0.905 ± 0.09
AACUAGCAAUAUUACGGUAG	-2.06 ± 0.11	0.0456 ± 0.12
AACUAGCAAUAUUACGGUGU	-1.77 ± 0.083	-0.956 ± 0.099
AACUAGCAAUAUUACGUAAG	-1.22 ± 0.084	-1.65 ± 0.11
AACUAGCAAUAUUACGUCAG	-3.51 ± 0.18	-1.57 ± 0.15
AACUAGCAAUAUUACGUCCC	-0.0622 ± 0.15	0.182 ± 0.16
AACUAGCAAUAUUACGUCCG	-1.74 ± 0.11	-0.228 ± 0.13
AAGAAGCAAUAUUACGAACA	-1.06 ± 0.16	-0.0339 ± 0.16
AAGAAGCAAUAUUACGACAA	-0.745 ± 0.098	-0.224 ± 0.12
AAGAAGCAAUAUUACGAGAA	-2.07 ± 0.26	-1.87 ± 0.19
AAGAAGCAAUAUUACGAUAA	-1.11 ± 0.12	-1.07 ± 0.15
AAGAAGCAAUAUUACGAUGC	-2.61 ± 0.13	-1.76 ± 0.17
